Results taken from the Human Domainome abundance scans (Beltran et al. 2025).

B1: Homeobox protein cut-like 2, residues 895 to 963; numbered along this chain, O14529 (parent)
chain: EVDTLELTRQVKEKLAKNGICQRIFGEKVLGLSQGSVSDMLSRPKPWSKLTQKGREPFIRMQLWLSDQL

Variants of: B1
Assay: abundance fitness (aPCA) (normalised: wild type 0, dead -1); higher = more abundant; growth selection in yeast, the domain comes from the species named
Conditions: Homo sapiens

Abundance fitness of substitutions, site by site:
L41: M -0.214 | Y -0.418
S42: A -0.014 | R -0.054 | H -0.007 | E 0.059 | K 0.009 | M 0.012 | P -0.159 | T -0.169 | N -0.095 | Q -0.092 | F -0.167 | L -0.086 | C -0.004 | G -0.272 | D 0.039
D39: V -0.389 | R -0.456 | Y -0.324 | G 0.026 | H -0.279 | E 0.029 | I -0.26 | P -0.184 | N -0.188 | K -0.441 | Q 0.005 | T -0.17 | C -0.15 | W -0.328 | S -0.073 | A -0.063 | M -0.178
M40: S -0.201 | W 0.048 | Y -0.236 | L 0.136 | G -0.298 | F -0.189 | E -0.475 | H -0.287 | Q -0.29 | A -0.169 | K -0.02 | I 0.007 | D -0.059 | V -0.046 | R -0.145 | P -0.251 | C -0.045 | N -0.473 | T -0.224
E27: R -0.019 | Y -0.191 | G -0.072 | I -0.128 | W -0.091 | Q -0.007 | S -0.006 | T -0.149 | D -0.162 | A -0.063 | P -0.106 | K 0.001 | F -0.173 | V -0.18 | M -0.14 | N -0.108
G35: L -0.03 | W -0.106 | Q 0.088 | D -0.125 | E 0.135 | R 0.037 | T 0.039 | K 0.124 | M -0.098 | H -0.043 | S 0.027 | I -0.215 | F -0.079 | P -0.077 | V -0.058 | Y -0.125 | C -0.211 | N 0.044 | A -0.006
L32: M -0.032 | T -0.211 | R -0.179 | V 0.132 | C -0.136 | Q -0.304 | P -0.286 | W -0.043 | S -0.203 | H -0.231 | K -0.169 | A -0.279 | N -0.305 | I -0.063 | F -0.141 | Y -0.281 | E -0.227
L30: Y -0.472 | V -0.275 | D -0.588 | N -0.425 | K -0.178 | A -0.447 | G -0.387 | R -0.18 | S -0.418 | Q -0.423 | I -0.301 | C -0.234 | T -0.536 | F -0.186 | W -0.21 | M -0.178
S38: T 0.006 | A 0.015 | P -0.209 | Y -0.008 | H 0.005 | D 0.007 | E 0.106 | F -0.221 | Q 0.03 | G -0.097 | N 0.012 | K 0.06 | R 0.024
V29: T -0.258 | M -0.104 | N -0.551 | H -0.394 | W -0.113 | R -0.121 | I 0.124 | D -0.476 | P -0.345 | F -0.174 | A -0.36 | Y -0.145 | Q -0.381 | E -0.535 | K -0.129 | C -0.104 | S -0.325 | G -0.173 | L -0.108
S33: C -0.035 | Q -0.027 | L -0.057 | I -0.088 | P 0.03 | M 0.053 | Y -0.12 | F -0.009 | K 0.023 | V -0.061 | N -0.003 | T -0.036 | G -0.03 | A -0.042
